Measurements from patent US9119806B2, “Culturing circular ssDNA viruses for the production of vaccines” (priority 2007, dated 2015).

Columns and labels:
[1] = test system: PCV2-infected PK-15 cells; assay: Number of PCV2-infected PK-15 cells (IPMA) after treatment with cytokines or natural cytokine sources; assay type: cell-based, Porcine circovirus 2; details: for increase in PCV2-positive cells / lowest concentration inducing a significant effect on PCV2-positive cells: PK-15
Description: PK-15 cells were seeded and maintained in culture medium containing 5%-10% fetal bovine serum (FBS), 0.3 mg/ml glutamine, 100 U/ml penicillin, 0.1 mg/ml streptomycin, 0.1 mg/ml kanamycin dissolved in minimal essential medium (MEM) (Gibco BRL®, Grand Island, USA) or dissolved in RPMI-1640 (GIBCO BRL®, Grand Island, USA) containing 1% nonessential amino acids (100×; GIBCO BRL®, Grand Island, USA) and 1 mM sodium pyruvate (GIBCO BRL®, Grand Island, USA). Cells were seeded at a concentration of 150,000 cells per ml of medium. For the detection of total viral antigen positive cells, the cells were seeded in 96-well microtiter plates (Nunc) (15,000-20,000 cells per well). To detect the expression of specific viral antigens, cells were seeded on sterile cover slips in Leighton tubes (150,000 cells per tube) and finally progeny virus production assays were performed in 24-well plates containing […].
(§1) In order to use cells, more related to the target cells in vivo, the monocytic cell line 3D4/31 was used to confirm the effect of the different cytokines on the number of PCV2-infected cells. The 3D4/31 cell line is a porcine monomyeloid cell lines that was established following transfection of primary porcine alveolar macrophage cultures with plasmid pSV3neo, carrying genes for neomycin resistance and SV40 large T antigen. (Weingartl et al. (2002) J Virol Methods. 10, 203-216). These cells were maintained in a 1:1 mixture of RPMI-1640 (Invitrogen) and DMEM (Invitrogen) supplemented with 10% fetal bovine serum, 0.3 mg/ml glutamine, 100 U/ml penicillin, 0.1 mg/ml streptomycin, 0.1 mg/ml kanamycin and 1% non-essential amino acids 100× (GIBCO BRL®, Grand Island, USA). These experiments were also performed in 96-well plates containing the same number of cells. Furthermore, to monitor the effect of IFN-gamma on the entry of PCV2 virion-like particles was determined, 3D4/31 cells were seeded at 2×10^5 cells/ml of medium onto microscopic slides mounted with an 8 well cell culture silicone chamber (Vivascience AG, Hanover). In all inoculations, the same PCV2-strain (Stoon-1010) was used at a multiplicity of infection of 0.01. The virus was diluted in MEM and inoculated on the cell cultures by incubating cells and virus for 1 hour at 37° C. After 1 hour, the inoculum was removed, the cultures were washed twice with MEM and new culture medium was added.
(§2) The influence of the cytokines on the infection of PCV2 in PK-15 and 3D4/31 cells was determined by adding two-fold-dilution series of the cytokines to the medium of the cells before, during or after the inoculation. IL-1, IL-6, […] and IFN-alpha were used in concentrations ranging from 0.25-250 Units/ml (U/ml), IFN-gamma was used in concentrations ranging from 0.25-1000 U/ml and IL-10 was used in concentrations from 0.13-125 U/ml. Cell cultures were either pre-treated with the cytokines for 24 hours before inoculation, treated during the inoculation or the cytokines were added in the medium after the inoculation. After 36 hours of incubation at 37° C. in an environment supplemented with 5% CO2, the cells were fixed by drying and frozen at −20° C. The plates were stained with an immuno-peroxydase monolayer assay (IPMA) as described by Sanchez et al. (2003, Vet Microbiol 95, 15-25) and the number of PCV2-positive cells was counted by light microscopy. In each plate a control was inoculated with an equal dose of mock-treated PCV2 (treated with MEM without cytokines). The number of infected cells in this well was used as the reference and all results were expressed as a ratio to this reference.
Two-fold dilutions of the BAL-fluids of the PRCV and mock-inoculated pigs were added to the medium of PCV2-inoculated PK-15 cells after inoculation. Concentrations of the added BAL-fluids ranged from 1.25 to 5%. Supernatants of ConA and mock-stimulated PBMC's were also added to the culture medium of PK-15 cells after inoculation in concentrations ranging from […] to 50%. […]

[2] = test system: PCV2-infected 3D4/31 cells; assay: Number of PCV2-infected 3D4/31 cells (IPMA) after cytokine treatment; assay type: cell-based, Porcine circovirus 2; details: for increase in PCV2-positive cells: 3D4/31
Excerpt: as §1, §2

[3] = test system: PCV2 strain Stoon-1010 in PK-15 cells; assay: Progeny PCV2 production in PK-15 cells with acidification inhibitors and/or IFN-gamma; assay type: cell-based, Porcine circovirus 2; details: IFN-gamma 500 U/ml pre-treatment
Description: For progeny virus production assays, 2×10^5 cells were seeded in every well of 24-well cell culture plates. Cells were pre-treated with or without 500 U/ml IFN-gamma at 6 hours post seeding. At 24 h post-seeding, cells were washed and inoculated with the prototype PCV2 strain Stoon-1010 at an m.o.i. of 0.3 for 1 hour at 37° C. The viral inoculum was washed-off and cells were further incubated in 1 ml of culture medium with or without 25 mM ammonium chloride, 125 μM chloroquine diphosphate and/or 6 μM monensin for 24 hours. Then, the culture medium with or without endosomal-lysosomal system acidification inhibitors was replaced with fresh culture medium without inhibitors. At 1, 24, 48 and 72 hours post-inoculation the supernatant was collected. Subsequently the culture was washed once with 1 ml PBS. Both the supernatant and the washing fluid were centrifuged for 10 minutes at 15,000×g to pellet cells and debris. The centrifuged supernatant and washing fluids were combined and considered to contain the extracellular virus. Both pellets and cell cultures were freeze-thawed three times and considered to contain the intracellular virus. Intra- and extracellular virus titres were determined by titration on PCV-negative PK-15 cells as described previously. Viral antigens were detected using an IPMA as described above and PCV2 titre was expressed as log10 TCID50 per 10^5 cells.

[4] = test system: PCV2 (field strain Imp-1121); assay: PCV2 replication in inoculated pigs given IFN-gamma or ConA; assay type: in vivo; details: pigs inoculated at 19 days of age; samples 10, 15, 21 days post inoculation
Description: Pigs are inoculated with PCV2 (field strain Imp-1121) at 19 days of age. These inoculated pigs are divided in 3 groups. One group contains control pigs (only PCV2). The second group of pigs receives recombinant IFN-gamma (100,000 U per pig every three days). The third group contains pigs that receive ConA (1.5 mg/kg every three days). At different times post inoculation (10, 15, 21 days) samples are collected and the replication of the virus is assessed.

B1: IFN-gamma: Porcine interferon gamma purchased from R&D systems (protein, UniProt P17803 24-166, looked up)
Interferon gamma: QAPFFKEITILKDYFNASTSDVPNGGPLFLEILKNWKEESDKKIIQSQIVSFYFKFFEIFKDNQAIQRSMDVIKQDMFQRFLNGSSGKLNDFEKLIKIPVDNLQIQRKAISELIKVMNDLSPRSNLRKRKRSQTMFQGQRASK
[1]; 1000 U/ml added after inoculation
  increase in PCV2-positive cells: 791±105%
[1]; 1000 U/ml added before inoculation
  increase in PCV2-positive cells: 518±134%
[1]; 1000 U/ml added during inoculation
  increase in PCV2-positive cells: 270±57%
[1]; administered after inoculation
  lowest concentration inducing a significant effect on PCV2-positive cells: 2 U/ml
[1]; administered before inoculation
  lowest concentration inducing a significant effect on PCV2-positive cells: 16 U/ml
[1]; administered during inoculation
  lowest concentration inducing a significant effect on PCV2-positive cells: 2 U/ml
[1]; PK-15 cells, cytokine dilution series, before, during or after inoculation, 36 h
  change in the number of PCV2-positive cells (in words): dose-dependent increase
[2]; treated after inoculation
  increase in PCV2-positive cells: 523±115%
[2]; treated before inoculation
  increase in PCV2-positive cells: 806±88%
[2]; treated during inoculation
  increase in PCV2-positive cells: 214±16%
[2]; 3D4/31 cells, any concentration, before, during or after inoculation
  change in the number of PCV2-positive cells (in words): dose-dependent increase
[3]; 1 hpi
  PCV2 titres at 1 hpi: 2.0 TCID50 per 10^5 cells
[3]; 24 hpi
  PCV2 titres at 24 hpi: 2.1 TCID50 per 10^5 cells
[3]; 48 hpi
  PCV2 titres at 48 hpi: 3.4 TCID50 per 10^5 cells
[3]; 72 hpi
  PCV2 titres at 72 hpi: 3.9 TCID50 per 10^5 cells
[4]
  replication of PCV2 compared to control pigs (in words): increase in the replication of PCV2
